Literature values, collected in PMC9214263.

Target: TNFα (Homo sapiens) (UniProt P01375)
Assay: KinExA

Chain of TNFα (Homo sapiens) (P01375 77-233): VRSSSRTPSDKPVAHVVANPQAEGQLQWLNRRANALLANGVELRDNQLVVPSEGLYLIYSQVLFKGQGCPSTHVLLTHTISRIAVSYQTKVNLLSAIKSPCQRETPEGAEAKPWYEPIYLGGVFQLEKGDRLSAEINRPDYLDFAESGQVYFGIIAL

Kd: 4.2 pM
Substance: infliximab
